Laboratory results: PMC4900678

Tested on: Rrp5_C8;Rok1 (Saccharomyces cerevisiae;Saccharomyces cerevisiae)
Experiment: glycerol gradient sedimentation
Conditions: EMSA: 200 mM KCl, 10 mM MgCl2, 40 mM HEPES/KOH pH 7.5, 10 mM Mg-AMPPCP or 1 mM Mg-ADP, 12 min 25 C, native gel 4 C. 40S binding: 200 mM KOAc, 20 mM HEPES/KOH …

With mature 40S ribosomal subunit (18S rRNA) the binding signal (400 uM ADP, 98% of Rrp5 free) was 2 % Rrp5 bound and the binding signal (4 mM AMPPCP) was 15 % Rrp5 bound.
